Results published in PMC4045628 (CellBio, 2014).

How the values were obtained:
[1] = molecular target: HA-tagged kinase-inactive PKC iota (UniProt P41743); test: co-IP
[2] = molecular target: T1, HA-tagged wild-type PKC iota (UniProt P41743 1-596); test: co-IP
T1 sequence (looked up): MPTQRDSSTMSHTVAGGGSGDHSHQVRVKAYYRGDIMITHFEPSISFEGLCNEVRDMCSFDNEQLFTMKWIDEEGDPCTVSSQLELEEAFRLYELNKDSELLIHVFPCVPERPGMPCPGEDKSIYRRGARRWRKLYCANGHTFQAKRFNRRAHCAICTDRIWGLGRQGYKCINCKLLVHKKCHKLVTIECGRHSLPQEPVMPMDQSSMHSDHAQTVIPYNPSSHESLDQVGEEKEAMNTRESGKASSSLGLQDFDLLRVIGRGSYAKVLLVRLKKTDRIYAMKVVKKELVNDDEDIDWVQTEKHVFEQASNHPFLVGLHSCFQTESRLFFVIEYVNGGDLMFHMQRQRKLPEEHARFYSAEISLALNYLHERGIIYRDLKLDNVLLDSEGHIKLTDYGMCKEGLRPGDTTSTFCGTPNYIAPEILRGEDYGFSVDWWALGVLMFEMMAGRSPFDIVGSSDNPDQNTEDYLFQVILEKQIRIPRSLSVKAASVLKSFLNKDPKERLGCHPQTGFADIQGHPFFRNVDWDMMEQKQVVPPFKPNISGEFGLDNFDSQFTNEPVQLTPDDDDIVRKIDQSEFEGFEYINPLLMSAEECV

B1: PAR-6B (natural protein, rat (endogenous in PC12), UniProt D4A2F2 1-372, looked up)
chain: MNRGHRHGVSSGCLGTMEVKSKFGAEFRRFSLERSKPGKFEEFYGLLQHVHKIPNVDVLVGYADIHGDLLPINNDDNYHKAVSTANPLLRVFIQKKEEADYSAFGTDTLIRKKNVLSNVLRPDNHRKKPHIVISMPQDFRPVSSIIDVDILPETHRRVRLYKYGTEKPLGFYIRDGSSVRVTPHGLEKVPGIFISRLVPGGLAQSTGLLAVNDEVLEVNGIEVSGKSLDQVTDMMIANSRNLIITVRPANQRNNVVRNSRTSGSSGQSTDNSLLGYPQQAGASLEPEDQDSDEDDIIIEGSGEPQQIPKATPEALSLESLTQIELSFESGQNGFSPLQDTSLVAVPSSLDTESESRAPDQKLLEEDGTIITL
B1 was tested, and the fold co-immunoprecipitated relative to PAR-3 [1] was 10 fold and the “fold co-immunoprecipitated relative to PAR-3” value [2] was ~10 fold.
